Laboratory results as given in publication PMC11059001.

Molecular target: complement C1q, P02745;P02746;P02747
Assay: MST
Details: chain shown with the change

B1: truncated Trichinella spiralis calreticulin TsCRT^Δ (22-209, GSG linker, 305-364) W323A; V325A (protein)
chain: MGSSHHHHHHSSGENLYFQGGSEPTIYLKETFDDGDAWKERWVQSKHKDDYGEWQLSHGKLFADENDMGLKTMQDARFYSLSRKFDKVVDNKDKPLVIVYTVKHEQDIDCGGGYIKLMLENTDLEDFNSDTPYRIMFGPDICGPEKRAVHSILWHDGKNYEKRKNAIAMADIFTHAYKLIIFPNNSYEIWVNNDKEAYGRLEDDWTMTEPGSGPVPELYRYKGLGAIGFELAQAKSGTIFDNILITDDPEYAKEFIDKQLEALRPIEKVESDK
In the case of B1, the Kd is reported as 22.9 µM.

B2: truncated Trichinella spiralis calreticulin TsCRT^Δ (22-209, GSG linker, 305-364) D139A; H149A (protein)
chain: EPTIYLKETFDDGDAWKERWVQSKHKDDYGEWQLSHGKLFADENDMGLKTMQDARFYSLSRKFDKVVDNKDKPLVIVYTVKHEQDIDCGGGYIKLMLENTDLEDFNSDTPYRIMFGPAICGPEKRAVASILWHDGKNYEKRKNAIAMADIFTHAYKLIIFPNNSYEIWVNNDKEAYGRLEDDWTMTEPGSGPVPELYRYKGLGAIGFELWQVKSGTIFDNILITDDPEYAKEFIDKQLEALRPIEKVESDK
B2 gave a Kd of 19 µM.

B3: truncated Trichinella spiralis calreticulin TsCRT^Δ (22-209, GSG linker, 305-364) C141A; K145A (protein)
chain: EPTIYLKETFDDGDAWKERWVQSKHKDDYGEWQLSHGKLFADENDMGLKTMQDARFYSLSRKFDKVVDNKDKPLVIVYTVKHEQDIDCGGGYIKLMLENTDLEDFNSDTPYRIMFGPDIAGPEARAVHSILWHDGKNYEKRKNAIAMADIFTHAYKLIIFPNNSYEIWVNNDKEAYGRLEDDWTMTEPGSGPVPELYRYKGLGAIGFELWQVKSGTIFDNILITDDPEYAKEFIDKQLEALRPIEKVESDK
B3 was tested, and the Kd was 34.8 µM.

B4: truncated Trichinella spiralis calreticulin TsCRT^Δ (22-209, GSG linker, 305-364) M135A; I151A (protein)
chain: EPTIYLKETFDDGDAWKERWVQSKHKDDYGEWQLSHGKLFADENDMGLKTMQDARFYSLSRKFDKVVDNKDKPLVIVYTVKHEQDIDCGGGYIKLMLENTDLEDFNSDTPYRIAFGPDICGPEKRAVHSALWHDGKNYEKRKNAIAMADIFTHAYKLIIFPNNSYEIWVNNDKEAYGRLEDDWTMTEPGSGPVPELYRYKGLGAIGFELWQVKSGTIFDNILITDDPEYAKEFIDKQLEALRPIEKVESDK
For B4, the Kd was 5.99 µM.
